Results on one molecule are retold here after PMC7705443 (Cell Research, 2020).

Test [1] deals with SARS-CoV-2 RBD (residues 319-541), C-terminal his-tag (SARS-CoV-2, Wuhan-Hu-1 (MN908947.3), UniProt P0DTC2). Put plainly: SPR. Conditions: both partners purified.
The target in test [2] is SARS-CoV RBD (residues 306-527), C-terminal his-tag (SARS-CoV (GenBank NC_004718.3, Tor2), UniProt P59594). Put plainly: SPR. Conditions: both partners purified.

B1: P17 antibody (full-length IgG1) (antibody, V domains shown)
VH: QQLVESGGGVVQPGRSLRLSCAASGFTFSSYAMHWVRQAPGKGLEWVAVISYDGSNKYYADSVKGRFTISRDNSKNTLYLQMNSLRAEDTAVYYCARHATLMNNKDIWGQGTLVTVSS
VL: not shown
notes: also called NAb P17
A word on the Kd: it is a measure of binding affinity in units of concentration. A low value points to higher affinity. B1 had a Kd in test [1] of 0.096 nM. The binding result in test [2] is “no binding”.
